Laboratory results reported in the supplement of paper PMC10065799, “High-throughput profiling of sequence recognition by tyrosine kinases and SH2 domains using bacterial peptide display” (eLife, 2023).

Assays:
Grb2 SH2 = Grb2 SH2 (UniProt P62993); assay: SH2 binding enrichment of the phosphorylated peptide, bacterial display (enrichment ratio); higher = better substrate or ligand; peptides without Tyr show the background
c-Src SH2 = assay: as above
SHP2-C SH2 = assay: as above
AncSZ = assay: phosphorylation enrichment, bacterial display (enrichment ratio); higher = better substrate or ligand; peptides without Tyr show the background
Hck = Hck (UniProt P08631); assay: as above
c-Abl (mouse) = assay: as above
FGFR3 = FGFR3 (UniProt P22607); assay: as above
c-Src = assay: as above
Fer (mouse) = assay: as above
Fes = Fes (UniProt P07332); assay: as above
FGFR1 = FGFR1 (UniProt P11362); assay: as above
MERTK = MERTK (UniProt Q12866); assay: as above
Fyn = Fyn (UniProt P06241); assay: as above
Jak2 = Jak2 (UniProt O60674); assay: as above
EPHB1 = EPHB1 (UniProt P54762); assay: as above
EPHB2 = EPHB2 (UniProt P29323); assay: as above
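Throughout, for SH2 binding enrichment of the phosphorylated peptide, bacterial display: peptide library displayed on the E. coli surface as eCPX fusions, selected cells deep-sequenced, score is each peptide's frequency after selection divided by its frequency in the input.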
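Throughout, for phosphorylation enrichment, bacterial display: 11-residue human phosphosite peptides and single-mutation variants displayed on the E. coli surface, counted by deep sequencing, each peptide's frequency after selection divided by its frequency in the unselected input library; frequency after pTyr selection over input frequency; kinase dosed for 20-30% of maximal phosphorylation in three min.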

MERTK, sequence (Q12866 whole entry, looked up): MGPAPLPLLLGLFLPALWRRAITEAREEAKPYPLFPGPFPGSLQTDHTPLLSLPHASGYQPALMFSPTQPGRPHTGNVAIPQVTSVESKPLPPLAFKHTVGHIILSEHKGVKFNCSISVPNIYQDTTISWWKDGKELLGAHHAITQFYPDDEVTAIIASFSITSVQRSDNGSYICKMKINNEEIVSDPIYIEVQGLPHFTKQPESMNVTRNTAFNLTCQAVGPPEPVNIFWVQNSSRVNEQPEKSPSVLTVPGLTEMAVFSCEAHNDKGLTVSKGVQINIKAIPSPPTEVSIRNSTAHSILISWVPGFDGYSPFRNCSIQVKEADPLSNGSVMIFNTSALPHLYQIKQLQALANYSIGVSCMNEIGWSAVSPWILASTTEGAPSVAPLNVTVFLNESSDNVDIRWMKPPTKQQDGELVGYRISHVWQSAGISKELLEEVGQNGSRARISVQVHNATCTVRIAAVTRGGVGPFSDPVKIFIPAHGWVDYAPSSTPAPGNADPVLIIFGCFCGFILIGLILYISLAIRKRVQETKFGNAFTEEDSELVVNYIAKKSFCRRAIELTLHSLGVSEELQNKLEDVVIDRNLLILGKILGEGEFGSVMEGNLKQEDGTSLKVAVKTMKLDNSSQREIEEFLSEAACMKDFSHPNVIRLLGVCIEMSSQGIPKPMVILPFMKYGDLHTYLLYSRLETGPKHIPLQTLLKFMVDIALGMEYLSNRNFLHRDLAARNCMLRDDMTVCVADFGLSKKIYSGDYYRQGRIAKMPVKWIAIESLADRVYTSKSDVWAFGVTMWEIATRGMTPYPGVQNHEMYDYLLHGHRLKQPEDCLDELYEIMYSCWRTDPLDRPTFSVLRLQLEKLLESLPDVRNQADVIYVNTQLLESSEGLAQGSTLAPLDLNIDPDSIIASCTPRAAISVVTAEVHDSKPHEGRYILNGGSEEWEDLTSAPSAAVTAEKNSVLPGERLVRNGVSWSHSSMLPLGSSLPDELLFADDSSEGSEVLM
FGFR1, sequence (P11362 whole entry, looked up): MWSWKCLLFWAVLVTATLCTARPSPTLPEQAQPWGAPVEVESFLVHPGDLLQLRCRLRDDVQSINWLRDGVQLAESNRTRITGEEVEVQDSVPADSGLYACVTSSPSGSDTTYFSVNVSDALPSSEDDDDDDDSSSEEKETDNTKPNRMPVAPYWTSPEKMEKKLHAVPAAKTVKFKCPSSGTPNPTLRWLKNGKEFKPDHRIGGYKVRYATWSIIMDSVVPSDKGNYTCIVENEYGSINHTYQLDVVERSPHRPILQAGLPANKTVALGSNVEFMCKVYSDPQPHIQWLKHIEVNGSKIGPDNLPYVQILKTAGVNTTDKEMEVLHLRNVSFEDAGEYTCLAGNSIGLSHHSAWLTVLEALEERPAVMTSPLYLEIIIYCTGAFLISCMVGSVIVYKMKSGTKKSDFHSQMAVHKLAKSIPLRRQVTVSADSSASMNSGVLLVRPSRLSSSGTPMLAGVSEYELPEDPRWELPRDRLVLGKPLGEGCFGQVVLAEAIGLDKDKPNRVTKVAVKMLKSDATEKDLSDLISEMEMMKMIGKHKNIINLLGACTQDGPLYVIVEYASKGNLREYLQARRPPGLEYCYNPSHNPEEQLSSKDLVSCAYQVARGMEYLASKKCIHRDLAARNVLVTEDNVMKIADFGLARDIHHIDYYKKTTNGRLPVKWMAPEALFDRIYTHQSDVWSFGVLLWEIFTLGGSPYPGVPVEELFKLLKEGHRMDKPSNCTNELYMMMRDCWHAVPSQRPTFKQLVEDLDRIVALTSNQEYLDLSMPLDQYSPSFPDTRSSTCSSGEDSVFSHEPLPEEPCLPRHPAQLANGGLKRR
EPHB1, sequence (P54762 whole entry, looked up): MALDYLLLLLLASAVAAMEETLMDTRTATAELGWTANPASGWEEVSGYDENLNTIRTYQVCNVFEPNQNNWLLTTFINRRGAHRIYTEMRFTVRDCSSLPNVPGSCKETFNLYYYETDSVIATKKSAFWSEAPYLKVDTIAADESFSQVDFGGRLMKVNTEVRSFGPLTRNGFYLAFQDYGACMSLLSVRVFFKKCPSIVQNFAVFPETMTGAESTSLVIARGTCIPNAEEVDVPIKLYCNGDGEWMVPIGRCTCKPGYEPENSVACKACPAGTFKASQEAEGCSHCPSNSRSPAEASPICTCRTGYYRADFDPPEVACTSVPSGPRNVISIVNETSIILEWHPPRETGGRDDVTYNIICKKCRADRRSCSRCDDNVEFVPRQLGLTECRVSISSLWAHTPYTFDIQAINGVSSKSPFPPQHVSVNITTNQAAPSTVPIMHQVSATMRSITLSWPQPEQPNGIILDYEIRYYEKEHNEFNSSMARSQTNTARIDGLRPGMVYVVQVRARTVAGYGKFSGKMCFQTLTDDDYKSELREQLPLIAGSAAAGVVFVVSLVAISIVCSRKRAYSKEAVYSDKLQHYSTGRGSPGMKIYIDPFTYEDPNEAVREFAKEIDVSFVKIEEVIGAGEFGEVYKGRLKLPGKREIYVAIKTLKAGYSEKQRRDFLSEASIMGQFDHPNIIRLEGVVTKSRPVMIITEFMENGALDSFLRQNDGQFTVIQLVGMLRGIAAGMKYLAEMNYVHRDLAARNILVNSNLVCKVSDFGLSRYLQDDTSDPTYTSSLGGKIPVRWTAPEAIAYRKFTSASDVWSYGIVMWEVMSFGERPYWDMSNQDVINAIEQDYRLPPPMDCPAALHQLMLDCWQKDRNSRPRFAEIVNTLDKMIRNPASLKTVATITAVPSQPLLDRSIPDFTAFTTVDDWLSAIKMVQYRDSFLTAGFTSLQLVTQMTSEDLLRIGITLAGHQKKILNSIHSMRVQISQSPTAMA
Fyn, sequence (P06241 whole entry, looked up): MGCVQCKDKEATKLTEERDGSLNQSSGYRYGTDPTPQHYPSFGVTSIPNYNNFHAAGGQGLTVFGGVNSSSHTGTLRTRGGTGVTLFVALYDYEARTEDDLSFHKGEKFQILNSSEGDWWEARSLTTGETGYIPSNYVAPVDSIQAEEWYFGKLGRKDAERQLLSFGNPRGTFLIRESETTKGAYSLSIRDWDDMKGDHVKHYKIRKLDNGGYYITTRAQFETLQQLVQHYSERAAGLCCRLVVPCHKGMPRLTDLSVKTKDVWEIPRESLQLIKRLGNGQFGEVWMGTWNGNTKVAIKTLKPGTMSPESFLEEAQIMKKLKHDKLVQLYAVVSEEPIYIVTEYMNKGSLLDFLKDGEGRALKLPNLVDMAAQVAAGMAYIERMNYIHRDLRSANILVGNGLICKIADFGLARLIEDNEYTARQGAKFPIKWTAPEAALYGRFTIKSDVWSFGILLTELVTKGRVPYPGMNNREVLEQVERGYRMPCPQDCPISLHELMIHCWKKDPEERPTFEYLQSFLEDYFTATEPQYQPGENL
EPHB2, sequence (P29323 whole entry, looked up, the tested form may be a part): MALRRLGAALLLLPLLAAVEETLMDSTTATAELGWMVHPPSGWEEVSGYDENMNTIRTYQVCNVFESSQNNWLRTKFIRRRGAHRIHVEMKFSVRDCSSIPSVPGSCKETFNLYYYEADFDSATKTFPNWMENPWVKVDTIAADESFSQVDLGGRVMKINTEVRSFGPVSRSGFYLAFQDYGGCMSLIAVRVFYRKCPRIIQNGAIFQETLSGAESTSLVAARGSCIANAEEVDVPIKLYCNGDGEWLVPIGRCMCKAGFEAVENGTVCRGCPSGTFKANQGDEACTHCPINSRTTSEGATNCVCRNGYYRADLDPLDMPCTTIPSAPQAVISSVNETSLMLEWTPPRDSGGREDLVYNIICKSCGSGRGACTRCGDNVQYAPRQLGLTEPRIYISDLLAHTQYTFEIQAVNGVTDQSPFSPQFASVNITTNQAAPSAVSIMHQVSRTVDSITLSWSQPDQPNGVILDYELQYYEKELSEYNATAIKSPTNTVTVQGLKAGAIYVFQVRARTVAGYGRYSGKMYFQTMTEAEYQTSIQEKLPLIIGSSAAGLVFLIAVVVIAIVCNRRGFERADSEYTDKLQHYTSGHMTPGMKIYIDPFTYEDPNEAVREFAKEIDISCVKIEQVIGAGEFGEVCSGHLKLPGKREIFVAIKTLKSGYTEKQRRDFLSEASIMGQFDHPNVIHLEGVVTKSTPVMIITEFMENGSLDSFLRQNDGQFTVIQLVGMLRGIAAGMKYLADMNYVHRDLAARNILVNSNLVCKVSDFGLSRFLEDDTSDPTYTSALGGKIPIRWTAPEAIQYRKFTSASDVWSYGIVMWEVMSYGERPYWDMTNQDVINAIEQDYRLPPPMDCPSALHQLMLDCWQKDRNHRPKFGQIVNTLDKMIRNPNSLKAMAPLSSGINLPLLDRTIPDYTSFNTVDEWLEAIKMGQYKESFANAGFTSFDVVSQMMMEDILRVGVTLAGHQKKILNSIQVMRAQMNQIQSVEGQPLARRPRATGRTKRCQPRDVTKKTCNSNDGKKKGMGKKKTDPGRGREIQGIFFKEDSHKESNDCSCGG
Hck, sequence (P08631 whole entry, looked up): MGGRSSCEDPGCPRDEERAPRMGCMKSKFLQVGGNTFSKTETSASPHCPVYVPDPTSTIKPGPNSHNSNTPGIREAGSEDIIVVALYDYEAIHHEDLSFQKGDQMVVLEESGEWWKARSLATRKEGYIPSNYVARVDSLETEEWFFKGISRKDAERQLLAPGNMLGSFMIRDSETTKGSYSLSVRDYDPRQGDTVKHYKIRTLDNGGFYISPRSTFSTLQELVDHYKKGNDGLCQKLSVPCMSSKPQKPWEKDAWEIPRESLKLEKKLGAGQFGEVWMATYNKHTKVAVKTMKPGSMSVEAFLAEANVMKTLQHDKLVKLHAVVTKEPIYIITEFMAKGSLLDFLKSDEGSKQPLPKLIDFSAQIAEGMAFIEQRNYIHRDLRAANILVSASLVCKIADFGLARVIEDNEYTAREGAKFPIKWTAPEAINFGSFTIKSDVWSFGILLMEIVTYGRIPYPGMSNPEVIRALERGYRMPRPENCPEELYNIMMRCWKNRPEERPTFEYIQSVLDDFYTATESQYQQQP

Sequence	SH2 binding enrichment (Grb2 SH2)	SH2 binding enrichment (c-Src SH2)	SH2 binding enrichment (SHP2-C SH2)	phosphorylation enrichment (AncSZ)	phosphorylation enrichment (Hck)	phosphorylation enrichment (c-Abl (mouse))	phosphorylation enrichment (FGFR3)	phosphorylation enrichment (c-Src)	phosphorylation enrichment (Fer (mouse))	phosphorylation enrichment (Fes)	phosphorylation enrichment (FGFR1)	phosphorylation enrichment (MERTK)	phosphorylation enrichment (Fyn)	phosphorylation enrichment (Jak2)	phosphorylation enrichment (EPHB1)	phosphorylation enrichment (EPHB2)
RASGIYFVPKG [APBB1IP_Y340_YF]	1.12	0.935	1.11	1.17	8.1	34.3	1.71	4.75	0.731	1.2	1.71	13.8	6.15	2.91	5.1	2.37
RDGDRYFKGIV [DCX_Y64_N60D]	1.16	0.537	0.606	0.427	0.437	0.485	0.491	0.382	0.316	1.1	0.574	0.374	0.308	0.609	0.343	0.427
RDLRTYIMPAH [PNMT_Y256]	0.965	0.777	0.734	0.921	0.682	0.772	0.518	0.623	0.419	0.866	0.694	0.572	0.577	0.893	5.27	0.815
REGAKYVSHSA [ASS1_Y113_G117S]	0.878	0.473	0.561	0.764	0.457	0.818	0.854	0.667	0.504	0.785	0.473	0.593	0.454	0.691	0.414	0.468
REHTVYGEPRK [MAGEA4_Y240]	0.765	0.443	0.54	0.716	0.903	1.03	0.684	0.599	0.52	0.851	0.664	0.492	0.869	0.674	0.588	0.687
RESYKYLPSSL [CXXC1_Y218_F219L]	1.1	0.582	0.791	1.09	0.762	1.25	0.821	0.993	0.546	1.17	1.21	0.859	0.59	1.11	0.571	0.616
REVVNYVQKRS [RMI1_Y450_N455S]	0.826	0.515	0.511	0.981	0.484	0.519	0.835	0.564	0.525	1.01	0.65	0.68	0.581	0.468	0.459	0.35
RFLERYIYNRE [HLA-DPB1_Y57]	1.3	1.28	1.45	0.77	1.73	0.533	0.784	0.849	0.546	0.949	0.495	0.533	0.842	0.451	0.852	0.683
RFLFFYSFLLK [PTEN_Y178_V175L_YF]	1.58	0.808	1.29	2.12	0.631	1.51	0.754	1.41	0.765	1.78	0.885	0.782	0.79	1.53	0.984	0.574
RGEEPYTKKAL [TTC21B_Y160_K157E]	0.542	0.4	0.634	0.715	0.719	0.487	0.714	0.383	0.552	0.991	0.771	0.491	0.481	0.473	0.413	0.476
RGGWVYVLHPT [TRMT61A_Y67]	0.99	0.573	0.787	1.8	0.909	0.702	1.03	0.895	0.766	1.66	0.853	0.493	1.25	1.2	1.07	0.856
RGVAHYILQTF [SLC39A4_Y359_T357A]	1.73	1.16	1.71	1.48	0.685	1.13	0.628	0.743	0.554	1.34	0.456	0.583	0.636	1.33	0.718	0.724
RHAASYSSDSE [REPS1_Y116]	0.985	0.569	0.735	0.702	0.41	0.627	0.611	0.607	0.578	0.806	0.513	0.51	0.737	1.19	0.382	0.381
RHIEKYVDQGK [IRAK3_Y61]	0.993	0.605	0.834	0.771	0.74	0.783	0.633	0.687	0.593	0.833	0.512	0.59	0.533	0.857	0.577	0.318
RIAFQYGDTDL [MYBPC3_Y340_V342D]	0.954	0.577	0.742	1.1	0.432	0.735	0.737	0.381	0.689	1.24	0.703	0.544	0.81	0.784	0.743	0.825
RIVTTYIRERE [DNM2_Y463]	0.71	0.518	0.655	1.12	0.874	0.741	0.682	0.499	0.649	1.06	0.616	0.758	0.811	0.795	0.477	0.75
RLLRGYRQDAF [HLA-A_Y137_F133L_YF]	0.762	0.465	0.965	1.22	0.604	0.807	0.676	0.819	0.659	0.981	0.547	0.647	0.678	0.854	0.809	0.334

Sequence	SH2 binding enrichment (Grb2 SH2)	SH2 binding enrichment (c-Src SH2)	SH2 binding enrichment (SHP2-C SH2)	phosphorylation enrichment (AncSZ)	phosphorylation enrichment (Hck)	phosphorylation enrichment (c-Abl (mouse))	phosphorylation enrichment (FGFR3)	phosphorylation enrichment (c-Src)	phosphorylation enrichment (Fer (mouse))	phosphorylation enrichment (Fes)	phosphorylation enrichment (FGFR1)	phosphorylation enrichment (MERTK)	phosphorylation enrichment (Fyn)	phosphorylation enrichment (Jak2)	phosphorylation enrichment (EPHB1)	phosphorylation enrichment (EPHB2)
RLLVVYPWTRR [HBB_Y36_Q40R]	0.506	0.465	0.448	0.683	1.14	0.577	0.823	0.68	0.407	0.626	0.567	0.64	0.523	0.469	0.505	0.597
RLQEGYDHSYY [ESD_Y258]	0.939	1.4	1.05	1.21	0.611	1.11	0.928	1.06	0.573	1.01	0.715	0.597	0.645	1.05	0.717	0.53
RLRKFHLGKFL [KLB_Y906_Y906H_YF]	0.229	0.303	0.406	1.06	0.63	0.948	0.651	0.792	0.415	1.13	0.417	0.969	0.574	0.698	1.17	1.16
RLSELYLRRNR [CFAP410_Y68]	0.736	0.344	0.585	1.3	0.827	1.1	0.875	0.931	0.57	1.14	0.703	1.04	0.878	0.934	0.94	0.807
RLSVDYGKKSK [TUBA3E_Y161_S162G]	1.04	0.83	0.843	0.613	0.511	0.553	0.642	0.396	0.377	0.879	0.534	0.389	0.702	0.922	0.471	0.671
RNAAEYPLSSG [ABL1_Y139_L140P]	0.865	0.497	0.354	0.426	0.596	0.647	0.485	0.522	0.402	0.898	0.445	0.453	0.401	0.41	0.337	0.345
RNVYYYSYLLK [PTEN_Y178_Y174N]	1.5	1.61	2.1	3.58	5.15	9.24	8.38	7.3	1.59	2.56	9.89	11.5	3.94	8.72	8.15	5.19
RPPFTYATLIR [FOXP3_Y342]	1.37	1.25	6.22	1.14	2.58	0.686	0.813	3.29	0.55	1.01	0.913	1.01	2.14	1.29	1.64	0.737
RQEEEYKRLSE [SFSWAP_Y133]	1.02	0.469	0.539	2.53	0.888	1.43	1.22	1.2	0.892	2.21	0.693	0.804	1.02	2.31	0.574	1.15
RQRTAYFSLDT [CDH1_Y68]	0.928	1.74	11.3	0.669	0.357	0.752	0.504	0.533	0.414	0.767	0.586	0.535	0.38	0.691	0.426	0.293
RRAKGYPIFLF [ITGB2_Y125_D128Y_YF]	0.62	0.582	0.679	0.632	0.548	0.854	0.63	0.857	0.581	0.741	0.561	0.524	0.624	1.12	0.351	0.739
RRGTRYMSSRP [RPL21_Y13_F15S]	0.964	0.489	0.533	0.439	0.621	0.527	0.633	0.947	0.578	0.473	0.551	0.57	0.772	0.699	0.481	0.499
RRIHSYRGFLW [VHL_Y112_H115Y_YF]	0.801	0.581	0.666	0.622	0.377	0.426	0.378	0.552	0.458	0.575	0.389	0.577	0.577	0.577	0.343	1.73
RRKRAYVEIEY [MAK16_Y282_Q277R]	1.32	0.37	0.938	1.37	1.13	1.04	1.18	0.999	0.996	1.21	0.731	1.22	0.667	1.54	1.02	1.06
RRNSPYSQTMK [TET2_Y819]	0.76	0.545	0.43	1.02	0.913	1.81	0.953	1.02	0.63	1.14	2.12	0.813	0.731	1.84	1.07	0.853
RRNTPYSQTMK [TET2_Y819_S817T]	1.23	0.611	1.12	0.55	0.367	0.422	0.431	0.44	0.512	0.626	0.273	0.503	0.428	0.708	0.252	0.365
